Values quoted from earlier work, collected in patent publication US20250341526A1, “NOVEL DYES” (Quantum-Si Incorporated, priority 2024, published 2025).
Residue numbers refer to the chain shown, from its start. Names and notes keep the numbering of the source.

B1: Escherichia coli ClpS: ClpS amino acid recognition protein, SEQ ID NO: 108 (protein, listed as Escherichia coli)
chain: MGKTNDWLDFDQLAEEKVRDALKPPSMYKVILVNDDYTPMEFVIDVLQKFFSYDVERATQLMLAVHYQGKAICGVFTAEVAETKVAMVNKYARENEHPLLCTLEKA
B2: Escherichia coli ClpS M40A: ClpS amino acid recognition protein, SEQ ID NO: 109 (protein, listed as Escherichia coli)
chain: B1 chain with M40A
B3: Thermosynechococcus elongatus ClpS: ClpS amino acid recognition protein, SEQ ID NO: 107 (protein, listed as Thermosynechococcus elongatus)
chain: MPQERQQVTRKHYPNYKVIVLNDDFNTFQHVAACLMKYIPNMTSDRAWELTNQVHYEGQAIVWVGPQEQAELYHEQLLRAGLTMAPLEPE
B4: PS382: ClpS amino acid recognition protein, SEQ ID NO: 15 (protein)
chain: MSDSPVIKEIKKDNIKEADEHEKKEREKETSAWKVILYNDDIHNFTYVTDVIVKVVGQISKAKAHTITVEAHSTGQALILSTWKSKAEKYCQELQQNGLTVSIIHESQLKDKQKK
B5: Synechococcus elongatus ClpS1: ClpS amino acid recognition protein, SEQ ID NO: 105 (protein, listed as Synechococcus elongatus)
chain: MAVETIQKPETTTKRKIAPRYRVLLHNDDFNPMEYVVMVLMQTVPSLTQPQAVDIMMEAHTNGTGLVITCDIEPAEFYCEQLKSHGLSSSIEPDD
B6: Plasmodium falciparum ClpS: ClpS amino acid recognition protein, SEQ ID NO: 110 (protein, listed as Plasmodium falciparum)
chain: MFKDLKPFFLCIILLLLLIYKCTHSYNIKNKNCPLNFMNSCVRINNVNKNTNISFPKELQKRPSLVYSQKNFNLEKIKKLRNVIKEIKKDNIKEADEHEKKEREKETSAWKVILYNDDIHNFTYVTDVIVKVVGQISKAKAHTITVEAHSTGQALILSTWKSKAEKYCQELQQNGLTVSIIHESQLKDKQKK
B7: PS380: ClpS amino acid recognition protein, SEQ ID NO: 13 (protein)
chain: MGDIYGESNPEEVSCIDSLSEEGNELILFNDNIHTFEYVIDCLVAICSLSYEQASNCAYIVDRKGLCTVKHGSYDELLIMYHALVEKDLKVEIR
B8: PS368: ClpS amino acid recognition protein, SEQ ID NO: 1 (protein)
chain: MASAPSTTLDKSTQVVKKTYPNYKVIVLNDDLNTFDHVANCLIKYIPDMTTDRAWELTNQVHYQGQAIVWTGPQEQAELYHQQLRREGLTMAPLEAA
B9: Synechococcus elongatus ClpS2: ClpS amino acid recognition protein, SEQ ID NO: 106 (protein, listed as Synechococcus elongatus)
chain: MSPQPDESVLSILGVPRPCVKKRSRNDAFVLTVLTCSLQAIAAPATAPGTTTTRVRQPYPHFRVIVLDDDVNTFQHVAECLLKYIPGMTGDRAWDLTNQVHYEGAATVWSGPQEQAELYHEQLRREGLTMAPLEAA
B10: PS390: ClpS amino acid recognition protein, SEQ ID NO: 18 (protein)
chain: MLSIAAVTEAPSKGVQTADPKTVRKPYPNYKVIVLNDDFNTFQHVSSCLLKYIPGMSEARAWELTNQVHFEGLAVVWVGPQEQAELYYAQLKNAGLTMAPPEPA
B11: PS388: ClpS amino acid recognition protein, SEQ ID NO: 16 (protein)
chain: MVTTLSADVYGMATAPTVAPERSNQVVRKTYPNYKVIVLNDDFNTFQHVAECLMKYIPGMSSDRAWDLTNQVHYEGQAIVWVGPQEPAELYHQQLRRAGLTMAPLEAA
B12: PS391: ClpS amino acid recognition protein, SEQ ID NO: 19 (protein)
chain: MGQTVEKPRVEGPGTGLGGSWRVIVRNDDHNTFDHVARTLARFIPGVSLERGHEIAKVIHTTGRAVVYTGHKEAAEHYWQQLKGAGLTMAPLEQG
B13: PS393: ClpS amino acid recognition protein, SEQ ID NO: 21 (protein)
chain: MSDEDGEDGDENAVGIATRTRTRTKKPTPYRVLLLNDDYTPMEFVVLVLQRFFRMSIEDATRVMLQVHQKGVGVCGVFTYEVAETKVSQVIDFARQNQHPLQCTLEKA
B14: atClpS1 C7S: ClpS amino acid recognition protein, SEQ ID NO: 103 (protein)
chain: MIAEPISMQGEGDGEDGGTNRGTSVITRVKPKTKRPNLYRVLLLNDDYTPMEFVIHILERFFQKDREAATRIMLHVHQHGVGECGVFTYEVAETKVSQVMDFARQHQHPLQCVMEKK
B15: atClpS1 C7S, C84S, C112S: ClpS amino acid recognition protein, SEQ ID NO: 104 (protein)
chain: B14 chain with C84S, C112S
B16: PS389: ClpS amino acid recognition protein, SEQ ID NO: 17 (protein)
chain: MLNSAAFKAASASPVIAPERSGQVTQKPYPTYKVIVLNDDFNTFQHVHDCLVKYIPGMTSDRAWQLTHQVHNDGQAIVWVGPQEQAELYHQQLSRAGLTMAPIEAA
B17: PS394: ClpS amino acid recognition protein, SEQ ID NO: 22 (protein)
chain: MAERRDTGDDEGTGLGIATKTRSKTKKPTPYRVLMLNDDYTPMEFVVLCLQRFFRMNMEEATRVMLHVHQKGVGVCGVFSYEVAETKVGQVIDFARANQHPLQCTLEKA
B18: PS395: ClpS amino acid recognition protein, SEQ ID NO: 23 (protein)
chain: MTVSQSKTQGAPAAQSATELEYEGLWRVVVLNDPVNLMSYVVLVFKKVFGFDETTARKHMLEVHEQGRSVVWSGMREKAEAYAFTLQQWHLTTVLEQDEVR
B19: PS392: ClpS amino acid recognition protein, SEQ ID NO: 20 (protein)
chain: MSVEIIEKRSTVRKLAPRYRVLLHNDDFNPMEYVVQTLMATVPSLTQPQAVNVMMEAHTNGMGLVIVCALEHAEFYAETLNNHGLGSSIEPDD
B20: PS506: amino acid recognition protein, SEQ ID NO: 134 (protein, listed as Capitella teleta)
chain: MLCGKVFKMGELTYSCRDCGTDPTCVLCMDCFQHSAHKKHRYKMAASGGGGYCDCGDREAWKAEPFCDVHKR
B21: PS501: amino acid recognition protein, SEQ ID NO: 129 (protein, listed as Amanita thiersii)
chain: MICGQIIGKGESCFRCRDCGLDESCVMCSQCFHATDHINHNVSFFVSQQPGGCCDCGDEEAWKKPMNCPYHPP
B22: PS504: amino acid recognition protein, SEQ ID NO: 132 (protein, listed as Galleria mellonella)
chain: MLCGKVFKQGEPAYSCRECGMDNTCVLCVECFKVSPHRHHKYKMGQSGGGGCCDCGDTEAWKRDPFCERHAK
B23: PS502: amino acid recognition protein, SEQ ID NO: 130 (protein, listed as Helobdella robusta)
chain: MVCLKVFKLGEPTYSCRSVTCGMDPTCVLCVDCFQNSSHKLHKYKMSTSGGGGYCDCGDLEAWKADPLCDLHKL
B24: PS507: amino acid recognition protein, SEQ ID NO: 135 (protein, listed as Sparassis crispa)
chain: MPCGHIFKKGESCFRCKDCALDDSCVLCSKCFEATDHANHNVSFFIAQQSGGCCDCGDIEAWLVPIDCPFHPV
B25: Saccharomyces cerevisiae GID10: amino acid recognition protein, SEQ ID NO: 125 (protein, listed as Saccharomyces cerevisiae)
chain: MTSLNIMGRKFILERAKRNDNIEEIYTSAYVSLPSSTDTRLPHFKAKEEDCDVYEEGTNLVGKNAKYTYRSLGRHLDFLRPGLRFGGSQSSKYTYYTVEVKIDTVNLPLYKDSRSLDPHVTGTFTIKNLTPVLDKVVTLFEGYVINYNQFPLCSLHWPAEETLDPYMAQRESDCSHWKRFGHFGSDNWSLTERNFGQYNHESAEFMNQRYIYLKWKERFLLDDEEQENQMLDDNHHLEGASFEGFYYVCLDQLTGSVEGYYYHPACELFQKLELVPTNCDALNTYSSGFEIA
B26: PS503: amino acid recognition protein, SEQ ID NO: 131 (protein, listed as Hydra vulgaris)
chain: MFCGRLFKVGDPTYTCKDCAADPTCVFCHDCFHQSVHTKHKYKLFASQGRGGYCDCGDKEAWTNDPACNKHKE
B27: PS505: amino acid recognition protein, SEQ ID NO: 133 (protein, listed as Brachionus plicatilis)
chain: MVCGRVFKSGEPSYFCRECGTDPTCVLCSICFRHSKHRYHKYVMMTSGGGGYCDCGDPEAWKSDPCCELHMP

Test system: amino acid at a terminal position of a polypeptide
Settings: Table 1, ClpS proteins; amino acid at terminal position; inferred from literature and/or demonstrated by the inventors; cited from earlier work

Molecule	Binding Pref.
B1	F, W, Y, L
B2	F, W, Y, L
B3	F, W, Y, L
B4	F, Y, W, L
B5	F, W, Y
B6	F, W, Y, L
B7	F, W
B8	F, Y, W, L
B9	F, W, Y, L
B10	F, Y, L
B11	F, Y, L
B12	F, Y, W, L
B13	F, Y, W, L
B14	F, W, Y, L
B15	F, W, Y, L
B16	F, Y, L
B17	F, Y, W, L
B18	F, Y, W, L
B19	F, Y, W

Same assay, conditions: Table 2; amino acid at terminal position (phosphotyrosine also internal); inferred from literature and/or demonstrated by the inventors; cited from earlier work

Molecule	Binding Pref.
B20	K, R, H
B21	K, R, H
B22	K, R, H
B23	K, R, H
B24	K, R, H
B25	P, M, V
B26	K, R, H
B27	K, R, H
